Assay results reported in paper PMC3843485.

Target: Pseudomonas aeruginosa cytoplasmic heme binding protein PhuS, apo form (Pseudomonas aeruginosa)
Experiment: crystal structure

Pseudomonas aeruginosa cytoplasmic heme binding protein PhuS, apo form (natural protein)
stoichiometry N: 2
